According to US20040052796A1:
pKd: −log10 of the molar value.

Target: p185HER-2 (HER-2/neu, erbB-2 receptor tyrosine kinase) (human) (UniProt P04626)
Experiment: method not described; binding to cell surface p185HER-2 (statement in the summary)

- pKd: 7.85
Substance: p68HER-2 (herstatin), product of the alternative HER-2 transcript with retained intron 8 (ligand)
